Data set [1] addresses T1, PvTAT (tyrosine aminotransferase of Prunella vulgaris) (Prunella vulgaris, UniProt A0A0U1ZFM1).
T1 construct: gene tat; E. coli Rosetta (DE3); cloning primers translate to N-terminus MELQSSAQ and C-terminus FCERHSY
The data set can be described thus: phenylpyruvate absorbance at […] nm, nonlinear Michaelis-Menten fit. The note with it: 10 mM α-ketoglutarate; 0.1 mM PLP, 0.75 mM EDTA, 125 mM potassium phosphate pH 8.0, 30 °C. Type of data set: biochemical.

Substrate in data set [2]: N[C@@H](Cc1ccc(O)cc1)C(=O)O
The data set can be described thus: purified protein. Type of data set: biochemical, Prunella vulgaris. To be noted: 10 mM α-ketoglutarate, 0.1 mM PLP, 0.75 mM EDTA, 125 mM potassium phosphate pH 8.0, 30 °C.

Substrate in data set [3]: O=C(O)C(=O)Cc1ccccc1
The data set can be described thus: purified protein. Type of data set: biochemical, Prunella vulgaris. To be noted: 5.5 mM L-Tyr as amino donor, 0.1 mM PLP, 0.75 mM EDTA, 125 mM potassium phosphate pH 8.0, 30 °C.

Substrate in data set [4]: O=C(O)CC(=O)C(=O)O
The data set can be described thus: purified protein. Type of data set: biochemical, Prunella vulgaris. The note with it: 5.5 mM L-Tyr as amino donor, 0.1 mM PLP, 0.75 mM EDTA, 125 mM potassium phosphate pH 8.0, 30 °C.

Substrate in data set [5]: O=C(O)CCC(=O)C(=O)O
The data set can be described thus: purified protein. The note with it: 5.5 mM L-Tyr as amino donor, 0.1 mM PLP, 0.75 mM EDTA, 125 mM potassium phosphate pH 8.0, 30 °C. The class given is biochemical, Prunella vulgaris.

Substrate in data set [6]: CC(=O)C(=O)O
In words: purified protein. Type of data set: biochemical, Prunella vulgaris. To be noted: 5.5 mM L-Tyr as amino donor, 0.1 mM PLP, 0.75 mM EDTA, 125 mM potassium phosphate pH 8.0, 30 °C.

Substrate in data set [7]: N[C@@H](Cc1c[nH]c2ccccc12)C(=O)O
The data set can be described thus: purified protein. The class given is biochemical, Prunella vulgaris. To be noted: 10 mM α-ketoglutarate, 0.1 mM PLP, 0.75 mM EDTA, 125 mM potassium phosphate pH 8.0, 30 °C.

Substrate in data set [8]: O=C(O)C(=O)Cc1ccc(O)cc1
The data set can be described thus: purified protein. Type of data set: biochemical, Prunella vulgaris. The note with it: 10 mM L-Glu as amino donor, 0.3 mM NAD, 0.3 mM CoA, 0.75 mM EDTA, 125 mM potassium phosphate pH 8.0, 30 °C.

As usually defined, the Km is the concentration of substrate that gives half-maximal velocity. Consider `N[C@@H](Cc1ccccc1)C(=O)O` [L-Phe], for which, in data set [1], the Km was determined as 10.2 ± 0.05 mM.

B1: PvTAT (tyrosine aminotransferase of Prunella vulgaris) (Prunella vulgaris) (protein)
chain: MELQSSAQELDAPTTITIKGILGLLVSSTDAKETGKRVISLGIGDPTAYSCFHVSNAAQEAVVEALRSQKFNGYAPTAGLPQAREAIAEYLSRDLPYKLPADSVYVTAGCTQAIEIALSVLARPGCNILLPRPCFPIYGLCASFRNIEVRYFDLHPEKGWEVDLDAVQDLADHNTVAMVIINPGNPCGNVYSHQHLRKVAEMAKRLGIVVIADEVYGQLAFGANPFVPMGIFGSIAPVVTLGSLSKRWLIPGWRLGWLVINDPDGSLMSPKFVERIKKYCDINGGPATFIQAAVPEIIEQTQEVFFRKTINILKQTSDICYQKVEDINGISCPTKPKGAMAFMVKLNISQMKDISDDIDFCFKLAKEESVIILPGIAVGLKNWIRITFAVEPSALEEAMERLKSFCERHSY
notes: E. coli Rosetta (DE3); cloning primers translate to N-terminus MELQSSAQ and C-terminus FCERHSY
A word on the Vmax: it is the top rate of the reaction or transport when substrate is in excess. Usually kcat stands for the number of substrate molecules converted per active site and unit of time at saturation. In general, kcat/Km refers to the turnover number divided by the Michaelis constant. For the molecule B1, the Km in “purified protein [2]” turned out to be 0.40 ± 0.05 mM; in the data set “purified protein [3]” it was 3.90 ± 0.067 mM; in “purified protein [4]”, 4.72 ± 0.05 mM; in “purified protein [5]”, 10.80 ± 0.19 mM; in “purified protein [6]”, 52.06 ± 1.38 mM; in “purified protein [7]”, 8.14 ± 1.04 mM. The Km in “purified protein [8]” stood at 0.48 ± 0.004 mM. The Vmax in “purified protein [2]” is 1.74 µmol/min/mg; in “purified protein [3]”, 0.43 µmol/min/mg; in the data set “purified protein [4]”, 1.06 µmol/min/mg; in the data set “purified protein [5]”, 0.92 µmol/min/mg; in the data set “purified protein [6]”, 1.3 µmol/min/mg; in the data set “purified protein [7]” it was 1.53 µmol/min/mg. Further, the maximal velocity (Vmax) in the data set “purified protein [8]” worked out at 0.18 µmol/min/mg. For the same molecule, the kcat in the data set “purified protein [2]” was 1.19 ± 0.009 s⁻¹; in the data set “purified protein [3]”, 0.3 ± 0.01 s⁻¹; in “purified protein [4]”, 0.73 ± 0.01 s⁻¹; in “purified protein [5]”, 0.63 ± 0.002 s⁻¹; in the data set “purified protein [6]”, 0.89 ± 0.01 s⁻¹; in the data set “purified protein [7]”, 1.05 ± 0.08 s⁻¹. In the data set “purified protein [8]”, the kcat is 0.121 ± 0.01 s⁻¹. The kcat/Km turned out to be 3030 ± 350 M⁻¹ s⁻¹ in “purified protein [2]”; 76 ± 1 M⁻¹ s⁻¹ in “purified protein [3]”; 150 ± 5 M⁻¹ s⁻¹ in the data set “purified protein [4]”; 60 ± 8 M⁻¹ s⁻¹ in the data set “purified protein [5]”; 20 ± 3 M⁻¹ s⁻¹ in “purified protein [6]”; 130 ± 8 M⁻¹ s⁻¹ in the data set “purified protein [7]”. In addition, in “purified protein [8]”, the kcat/Km was 295 ± 35 M⁻¹ s⁻¹.

The values are drawn from article PMC5501851, “A tyrosine aminotransferase involved in rosmarinic acid biosynthesis in Prunella vulgaris L” (Scientific Reports, 2017).
